Test results as given in patent US20260234223A1 (LEYDEN LABORATORIES B V, published 2026).

What was measured:
hCoV-229E Spike antigen [1] = molecular target: T1, hCoV-229E Spike antigen (human coronavirus 229E, UniProt P15423 16-1110); assay: MSD multiplex binding assay, Coronavirus Panel 3
T1 sequence: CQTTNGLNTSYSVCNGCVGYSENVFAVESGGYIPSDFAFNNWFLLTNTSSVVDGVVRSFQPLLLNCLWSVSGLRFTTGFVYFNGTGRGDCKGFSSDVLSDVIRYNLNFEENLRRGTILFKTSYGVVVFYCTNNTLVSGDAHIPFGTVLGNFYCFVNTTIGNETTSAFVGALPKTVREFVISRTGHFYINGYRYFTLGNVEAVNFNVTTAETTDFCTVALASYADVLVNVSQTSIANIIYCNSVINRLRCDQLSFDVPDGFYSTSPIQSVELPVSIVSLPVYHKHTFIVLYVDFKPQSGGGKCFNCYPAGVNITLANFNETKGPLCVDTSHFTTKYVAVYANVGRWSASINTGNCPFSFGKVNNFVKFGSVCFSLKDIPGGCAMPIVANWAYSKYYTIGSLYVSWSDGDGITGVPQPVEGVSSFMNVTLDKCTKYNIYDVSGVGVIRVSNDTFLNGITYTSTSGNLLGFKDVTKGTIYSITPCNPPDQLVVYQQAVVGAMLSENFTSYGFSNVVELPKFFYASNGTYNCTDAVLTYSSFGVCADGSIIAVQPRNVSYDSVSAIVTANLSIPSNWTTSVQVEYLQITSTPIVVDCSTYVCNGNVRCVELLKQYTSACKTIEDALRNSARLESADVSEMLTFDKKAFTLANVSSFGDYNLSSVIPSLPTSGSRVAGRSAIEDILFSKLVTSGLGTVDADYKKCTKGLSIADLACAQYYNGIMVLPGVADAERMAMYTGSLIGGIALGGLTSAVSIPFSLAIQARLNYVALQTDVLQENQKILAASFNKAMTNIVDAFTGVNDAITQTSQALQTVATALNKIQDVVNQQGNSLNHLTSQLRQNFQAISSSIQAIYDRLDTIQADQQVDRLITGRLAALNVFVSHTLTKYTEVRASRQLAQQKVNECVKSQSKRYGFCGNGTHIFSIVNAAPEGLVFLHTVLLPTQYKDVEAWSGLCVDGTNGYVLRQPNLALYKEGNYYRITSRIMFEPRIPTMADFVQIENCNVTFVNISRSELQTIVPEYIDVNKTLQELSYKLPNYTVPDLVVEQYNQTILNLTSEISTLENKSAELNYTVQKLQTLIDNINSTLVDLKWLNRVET

[2] = molecular target: T2, human coronavirus NL63 Spike antigen (human coronavirus NL63, UniProt Q6Q1S2 19-1291); assay: ELISA on coated spike antigen
T2 construct: also called hCoV-NL63; hCoV NL63
T2 sequence: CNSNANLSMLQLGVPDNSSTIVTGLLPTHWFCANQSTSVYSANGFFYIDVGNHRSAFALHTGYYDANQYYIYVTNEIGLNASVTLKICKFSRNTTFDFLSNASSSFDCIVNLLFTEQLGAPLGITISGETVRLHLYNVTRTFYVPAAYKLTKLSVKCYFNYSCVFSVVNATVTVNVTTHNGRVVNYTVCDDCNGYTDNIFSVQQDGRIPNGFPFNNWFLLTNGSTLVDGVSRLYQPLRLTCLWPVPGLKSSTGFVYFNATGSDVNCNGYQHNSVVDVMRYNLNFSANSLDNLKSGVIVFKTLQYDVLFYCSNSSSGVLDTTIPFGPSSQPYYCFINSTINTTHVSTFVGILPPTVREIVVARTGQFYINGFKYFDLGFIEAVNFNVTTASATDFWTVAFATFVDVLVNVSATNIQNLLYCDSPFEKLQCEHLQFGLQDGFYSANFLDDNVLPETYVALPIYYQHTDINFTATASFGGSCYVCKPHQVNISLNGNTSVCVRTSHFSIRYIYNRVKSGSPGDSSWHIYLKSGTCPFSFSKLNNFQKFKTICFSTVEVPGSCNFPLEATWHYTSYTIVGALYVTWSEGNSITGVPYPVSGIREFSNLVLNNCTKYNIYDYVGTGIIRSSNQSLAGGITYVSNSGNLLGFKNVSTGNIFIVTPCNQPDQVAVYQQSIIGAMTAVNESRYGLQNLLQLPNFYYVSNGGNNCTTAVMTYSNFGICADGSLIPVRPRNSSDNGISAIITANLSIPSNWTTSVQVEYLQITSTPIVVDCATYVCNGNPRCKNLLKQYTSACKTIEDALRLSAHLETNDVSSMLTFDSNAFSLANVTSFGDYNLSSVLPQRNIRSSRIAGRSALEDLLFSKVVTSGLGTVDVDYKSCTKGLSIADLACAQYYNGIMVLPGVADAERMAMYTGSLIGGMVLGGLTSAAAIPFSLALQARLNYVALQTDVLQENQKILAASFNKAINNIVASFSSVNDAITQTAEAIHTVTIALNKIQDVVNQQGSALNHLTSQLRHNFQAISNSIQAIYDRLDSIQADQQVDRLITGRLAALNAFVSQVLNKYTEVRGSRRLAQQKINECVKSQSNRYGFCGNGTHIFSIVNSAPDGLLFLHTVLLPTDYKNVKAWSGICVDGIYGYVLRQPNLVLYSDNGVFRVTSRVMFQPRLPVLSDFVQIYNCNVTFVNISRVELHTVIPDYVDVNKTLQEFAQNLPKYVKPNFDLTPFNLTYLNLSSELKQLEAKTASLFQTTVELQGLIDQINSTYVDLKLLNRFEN

MERS-CoV Spike antigen = molecular target: T3, MERS-CoV Spike antigen (MERS-CoV, UniProt K9N5Q8 18-1291); assay: cell-based or functional assay
T3 sequence: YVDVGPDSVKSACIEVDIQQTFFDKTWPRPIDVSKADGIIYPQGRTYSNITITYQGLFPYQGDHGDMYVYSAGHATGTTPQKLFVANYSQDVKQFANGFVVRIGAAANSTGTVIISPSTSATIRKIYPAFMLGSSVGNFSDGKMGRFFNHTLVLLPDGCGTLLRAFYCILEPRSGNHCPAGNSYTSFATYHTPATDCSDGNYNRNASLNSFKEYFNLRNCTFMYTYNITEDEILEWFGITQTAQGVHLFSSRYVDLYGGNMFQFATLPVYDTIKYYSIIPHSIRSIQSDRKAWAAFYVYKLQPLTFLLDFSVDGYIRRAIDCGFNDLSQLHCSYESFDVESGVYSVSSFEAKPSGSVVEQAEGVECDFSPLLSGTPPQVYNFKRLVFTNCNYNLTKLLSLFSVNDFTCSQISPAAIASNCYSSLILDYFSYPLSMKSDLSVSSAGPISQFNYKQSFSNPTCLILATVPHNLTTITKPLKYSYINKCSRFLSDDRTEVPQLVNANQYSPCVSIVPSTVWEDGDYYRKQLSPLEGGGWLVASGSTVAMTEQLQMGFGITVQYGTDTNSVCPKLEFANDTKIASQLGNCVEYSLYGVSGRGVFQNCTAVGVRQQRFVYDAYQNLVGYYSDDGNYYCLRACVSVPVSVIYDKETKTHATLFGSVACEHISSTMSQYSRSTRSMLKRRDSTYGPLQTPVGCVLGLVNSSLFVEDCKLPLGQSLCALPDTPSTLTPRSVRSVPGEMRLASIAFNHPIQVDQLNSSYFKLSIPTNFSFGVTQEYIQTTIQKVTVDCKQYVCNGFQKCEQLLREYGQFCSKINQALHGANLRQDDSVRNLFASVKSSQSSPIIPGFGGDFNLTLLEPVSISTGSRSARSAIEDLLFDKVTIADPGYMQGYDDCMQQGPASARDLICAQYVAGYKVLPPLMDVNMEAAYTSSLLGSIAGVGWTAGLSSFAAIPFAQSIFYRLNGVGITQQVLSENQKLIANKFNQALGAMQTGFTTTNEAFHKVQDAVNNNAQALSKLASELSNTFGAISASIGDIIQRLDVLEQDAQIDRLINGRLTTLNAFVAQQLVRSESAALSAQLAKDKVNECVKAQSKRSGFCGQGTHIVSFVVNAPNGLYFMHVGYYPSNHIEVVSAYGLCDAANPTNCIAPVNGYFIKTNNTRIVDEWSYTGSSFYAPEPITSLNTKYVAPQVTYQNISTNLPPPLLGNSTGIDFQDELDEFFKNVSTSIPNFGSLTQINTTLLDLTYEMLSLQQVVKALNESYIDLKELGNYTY

[3] = molecular target: T4, SARS-CoV-2 Spike antigen (Wuhan, wildtype) (SARS-CoV-2 (Wuhan), UniProt P0DTC2 14-1208); assay: cell-based or functional assay
SARS-CoV-1 Spike antigen [4] = molecular target: T5, SARS-CoV-1 Spike antigen (SARS-CoV-1, UniProt P59594 14-1190); assay: cell-based or functional assay
[5] = molecular target: T4, SARS-CoV-2 Spike antigen (Wuhan, …); assay: cell-based or functional assay; remark: listed apart in the source
SARS-CoV-1 Spike antigen [6] = molecular target: T5, SARS-CoV-1 Spike antigen; assay: cell-based or functional assay; remark: listed apart in the source
hCoV-229E Spike antigen [7] = molecular target: T1, hCoV-229E Spike antigen; assay: cell-based or functional assay
[8] = molecular target: T2, human coronavirus NL63 Spike antigen; assay: cell-based or functional assay

B1: COV30-14 (antibody, V domains shown)
VH: QVQLVQSGAEVKKPGASVKVSCQTSGYTFTSYYMHWVRQAPGQGLEWMGLITPSGDDTYYAQRFQGRVTMTRDTSTSPTYMELSSLTSEDTAVYYCAKMSRAGGFDVWGQGTLVTVSS
VL: EVVLTQSPGTLSLSPGERATLSCRASQSITGRYLAWYQQKPGQAPRLLMYGESSRVTGIPDRFSGGGSGTDFTLTISRLEPEDFAVYYCQHFASSPPTYTFGQGTKLEIR
notes: also called the antibody according to the invention; the antibody according to invention
binding result (hCoV-229E Spike antigen [1]): no binding (tested: dilution range starting from 555 ng/ml)
binding result [2]: no binding (tested: range tested 10.0-0.000002 nM)
Live virus neutralization IC50 (MERS-CoV Spike antigen): 3.68 µg/mL
Live virus neutralization IC50 [3]: 25.4 µg/mL
Live virus neutralization IC50 (SARS-CoV-1 Spike antigen [4]): 4.95 µg/mL
Pseudovirion neutralization IC50 (geometric mean) [5]: 0.211 µg/mL
Pseudovirion neutralization IC50 (geometric mean) (SARS-CoV-1 Spike antigen [6]): 5.89 µg/mL
Pseudovirion neutralization IC50 (hCoV-229E Spike antigen [7]): > 250 µg/mL
Pseudovirion neutralization IC50 [8]: > 250 µg/mL
